The target of one test is Human VEGF-A 165 (human, UniProt P15692 207-395). The experiment in a line: cell-based or functional assay.
Another test concerns the target VEGF-A (UniProt P15692-4 27-191, limits assumed). Kind of test: SPR (Biacore), DVD-Ig captured by anti-human Fc, antigen injected. The method in brief:
(§1)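 Antibodies or DVD-Ig molecules (1 μg/ml) were captured on an anti-human Fc CM5 surface, with antigen injected in solution and responses referenced to the capture-only surface. Rate constants came from a global 1:1 Langmuir fit, and KD = koff/kon.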

The next test has as its target PDGF-BB (UniProt P01127 82-190). The description is as above. The method in brief: as §1
The target in test [1] is T1, recombinant human VEGF165 (human, UniProt P15692 207-395).
T1 construct: also called hVEGF165
T1 sequence (P15692 other isoform, or with tags, fused parts or gaps limits assumed): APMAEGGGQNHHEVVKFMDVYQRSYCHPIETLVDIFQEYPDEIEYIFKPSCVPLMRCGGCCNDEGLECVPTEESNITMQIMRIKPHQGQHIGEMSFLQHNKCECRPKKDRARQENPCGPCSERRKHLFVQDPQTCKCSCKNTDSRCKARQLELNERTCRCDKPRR
Kind of test: SPR (Biacore), antibody captured by anti-human Fc, hVEGF165 in solution. The method, then:
Unreacted moieties on the biosensor surface were blocked with ethanolamine. For kinetic analysis, rate equations derived from the 1:1 Langmuir binding model were fitted simultaneously to multiple antigen injections (using global fit analysis) with the use of Scrubber 2 (BioLogic Software), Biacore Biaevaluation 4.0.1 software or Biacore T100 Evaluation software. Purified antibodies or DVD-Ig molecules were diluted in running buffer for capture across goat anti-human Fc reaction surfaces. Antibodies or DVD-Ig molecules to be captured as a ligand (1 μg/ml) were injected over reaction matrices at a flow rate of 10 μl/minute. During the assay, all measurements were referenced against the capture surface alone (i.e., with no captured antibody or DVD-Ig molecule). […] The equilibrium dissociation constant KD (M) of the reaction between antibodies and the target antigen was then calculated from the kinetic rate constants by the following formula: KD=Koff/Kₒₙ. Binding was recorded as a function of time and kinetic rate constants were calculated. In this assay, on-rates as fast as 10⁶M⁻¹s⁻¹ and off-rates as slow as 10⁻⁶ s⁻¹ could be measured.
Affinity matured humanized anti-VEGF antibodies were characterized for hVEGF₁₆₅ binding and potency. Binding affinity of these molecules to hVEGF₁₆₅ was determined by Biacore analysis (Example 1.1). Potency was evaluated in both cell-based and ELISA formats. The ability to block binding of hVEGF₁₆₅ to hVEGFR2 was evaluated in a competition ELISA (Example 1.4) Inhibition of hVEGF₁₆₅-induced cell proliferation was assessed using HMVEC-d cells (Example 1.10).

Chain of Human VEGF-A 165 (P15692 other isoform, or with tags, fused parts or gaps limits assumed): as above
Chain of VEGF-A (P15692 other isoform, or with tags, fused parts or gaps limits assumed): as above
Chain of PDGF-BB (P01127 82-190): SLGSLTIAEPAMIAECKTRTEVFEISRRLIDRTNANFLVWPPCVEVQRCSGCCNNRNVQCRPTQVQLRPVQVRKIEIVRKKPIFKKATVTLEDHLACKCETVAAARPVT

B1: hBEW-1E3.3 (antibody, V domains shown)
VH: EVQLVQSGAEVKKPGASVKVSCKASGYPFTNSGMYWVRQAPGQGLEWMGWINTEAGKPTYADDFKGRFTFTLDTSTSTAYLEIRSLRSDDTAVYYCARWGYISDNSYGWFDYWGQGTLVTVSS
VL: ETVLTQSPATLSLSPGERATLSCRASEGVYSYMHWYQQKPGQQPRLLIYKASNLASGVPARFSGSGSGTDFTLTISSLEPEDFAVYFCHQNWNDPLTFGQGTKLEIK
Consider B1, for which the “hVEGF165 IC50 (nM), HMVEC-d proliferation” value (“hVEGF165 IC50 (nM)” below) with Human VEGF-A 165 came to 0.205 nM.

B2: hBEW-9E10.1 (antibody, V domains shown)
VH: EIQLVQSGSELKKPGASVKVSCKASGYTFTNYGMYWVKQAPGQGLEYMGWIDTETGRPTYADDFKGRFVFSLDTSVSTAYLQISSLKAEDTAVYFCARWSGDTTGIRGPWFAYWGQGTLVTVSS
VL: DIRMTQSPSSLSASVGDRVTIECLASEDIYSDLAWYQQKPGKSPKLLIYNANGLQNGVPSRFSGSGSGTDYSLTISSLQPEDVATYFCQQYNYFPGTFGQGTKLEIK
For B2, in the test with Human VEGF-A 165, the “hVEGF165 IC50 (nM)” value was 0.064 nM.

B3: hBEW-5C3.1 (antibody, V domains shown)
VH: EIQLVQSGSELKKPGASVKVSCKASGYTFTNYGVYWVKQAPGQGLEYMGWINTETGKPTYADDFKGRFVFSLDTSVSTAYLQISSLKAEDTAVYYCARARQLDWFVYWGQGTLVTVSS
VL: DTVLTQSPATLSLSPGERATLSCRARESLTTSLSWFQQKPGQQPRLLIYGASKLESGVPARFSGSGSGTDFTLTISSLEPEDFAVYFCQQSWYDPPTFGGGTKVEIK
Consider B3, for which the “hVEGF165 IC50 (nM)” value with Human VEGF-A 165 turned out to be 0.071 nM.

B4: hBEW-5C3.2 (antibody, V domains shown)
VH: EIQLVQSGAEVKKPGSSVKVSCKASGYTFTNYGVYWVKQAPGQGLEYMGWINTETGKPTYADDFKGRFTFTLDKSTSTAYMELSSLRSEDTAVYFCARARQLDWFVYWGQGTLVTVSS
VL: DTVLTQSPATLSLSPGERATLSCRARESLTTSLSWFQQKPGQQPRLLIYGASKLESGVPARFSGSGSGTDFTLTISSLEPEDFAVYFCQQSWYDPPTFGGGTKVEIK
For B4, the “hVEGF165 IC50 (nM)” value in the test with Human VEGF-A 165 turned out to be 0.162 nM.

B5: hBEW-5C3.3 (antibody, V domains shown)
VH: EVQLVQSGAEVKKPGSSVKVSCKASGYTFTNYGVYWVRQAPGQGLEWMGWINTETGKPTYADDFKGRFTFTLDKSTSTAYMELSSLRSEDTAVYYCARARQLDWFVYWGQGTLVTVSS
VL: DTVLTQSPATLSLSPGERATLSCRARESLTTSLSWFQQKPGQQPRLLIYGASKLESGVPARFSGSGSGTDFTLTISSLEPEDFAVYFCQQSWYDPPTFGGGTKVEIK
As to B5, the “hVEGF165 IC50 (nM)” value with Human VEGF-A 165 was more than 2 nM.

B6: hBEW-5C3.4 (antibody, V domains shown)
VH: EIQLVQSGSELKKPGASVKVSCKASGYTFTNYGVYWVKQAPGQGLEYMGWINTETGKPTYADDFKGRFVFSLDTSVSTAYLQISSLKAEDTAVYYCARARQLDWFVYWGQGTLVTVSS
VL: DTQLTQSPSSLSASVGDRVTISCRARESLTTSLSWFQQKPGKQPKLLIYGASKLESGVPSRFSGSGSGTDFTLTISSLQPEDFATYFCQQSWYDPPTFGGGTKVEIK
For the molecule B6, in the test with Human VEGF-A 165, the “hVEGF165 IC50 (nM)” value is 0.098 nM.

B7: 3E2.1_GS_1E3.4 (PR-1613190) (bispecific antibody, human IgG1, kappa, L234A L235A)
heavy: EVQLVQSGAEVKKPGSSVKVSCKASGYTFTESYMYWVKQAPGQGLELIGRIDPEDGSTDYVEKFKNKATLTADKSTSTAYMELSSLRSEDTAVYFCARFGARSYFYPMDAWGQGTTVTVSSGGGGSGGGGSEIQLVQSGSELKKPGASVKVSCKASGYPFTNSGMYWVKQAPGQGLEYMGWINTEAGKPTYADDFKGRFVFSLDTSVSTAYLQISSLKAEDTAVYFCARWGYISDNSYGWFDYWGQGTLVTVSSASTKGPSVFPLAPSSKSTSGGTAALGCLVKDYFPEPVTVSWNSGALTSGVHTFPAVLQSSGLYSLSSVVTVPSSSLGTQTYICNVNHKPSNTKVDKKVEPKSCDKTHTCPPCPAPEAAGGPSVFLFPPKPKDTLMISRTPEVTCVVVDVSHEDPEVKFNWYVDGVEVHNAKTKPREEQYNSTYRVVSVLTVLHQDWLNGKEYKCKVSNKALPAPIEKTISKAKGQPREPQVYTLPPSREEMTKNQVSLTCLVKGFYPSDIAVEWESNGQPENNYKTTPPVLDSDGSFFLYSKLTVDKSRWQQGNVFSCSVMHEALHNAYTQKSLSLSPGK
light: ETVLTQSPATLSLSPGERATLSCRASESVSTLMHWYQQKPGQQPRLLIYGASNLESGVPARFSGSGSGTDFTLTISSLEPEDFAVYFCQQSWNDPWTFGGGTKVEIKGGSGGGGSGGATQLTQSPSSLSASVGDRVTISCRASEGVYSYMHWYQQKPGKQPKLLIYKASNLASGVPSRFSGSGSGTDFTLTISSLQPEDFATYFCHQNWNDPLTFGQGTKLEIKRTVAAPSVFIFPPSDEQLKSGTASVVCLLNNFYPREAKVQWKVDNALQSGNSQESVTEQDSKDSTYSLSSTLTLSKADYEKHKVYACEVTHQGLSSPVTKSFNRGEC
notes: DVD-Ig: outer hBFU-3E2.1 (PDGF), inner hBEW-1E3.4 (VEGF), linkers GS-H10 / GS-L10(dR); Human IgG1 L234A, L235A, H435A with kappa light chain
In the test with VEGF-A, B7 registered a Kd of 0.26 nM and a kon of 360000 M⁻¹ s⁻¹. Also, in the test with PDGF-BB, the dissociation constant (Kd) was not above 0.0053 nM and the kon is not below 9e+07 M⁻¹ s⁻¹.

B8: hBEW-5C3.5 (antibody, V domains shown)
VH: EIQLVQSGAEVKKPGSSVKVSCKASGYTFTNYGVYWVKQAPGQGLEYMGWINTETGKPTYADDFKGRFTFTLDKSTSTAYMELSSLRSEDTAVYFCARARQLDWFVYWGQGTLVTVSS
VL: DTQLTQSPSSLSASVGDRVTISCRARESLTTSLSWFQQKPGKQPKLLIYGASKLESGVPSRFSGSGSGTDFTLTISSLQPEDFATYFCQQSWYDPPTFGGGTKVEIK
B8: the “hVEGF165 IC50 (nM)” value with Human VEGF-A 165 was 0.123 nM.

B9: hBEW-5C3.6 (antibody, V domains shown)
VH: EVQLVQSGAEVKKPGSSVKVSCKASGYTFTNYGVYWVRQAPGQGLEWMGWINTETGKPTYADDFKGRFTFTLDKSTSTAYMELSSLRSEDTAVYYCARARQLDWFVYWGQGTLVTVSS
VL: DTQLTQSPSSLSASVGDRVTISCRARESLTTSLSWFQQKPGKQPKLLIYGASKLESGVPSRFSGSGSGTDFTLTISSLQPEDFATYFCQQSWYDPPTFGGGTKVEIK
In the case of B9, in the test with Human VEGF-A 165, the “hVEGF165 IC50 (nM)” value was more than 2 nM.

B10: hBEW-1B10.1 (antibody, V domains shown)
VH: EVQLVESGGGLVQPGGSLRLSCAASGFSFSKYDMAWFRQAPGKGLEWVASITTSGVGTYYRDSVKGRFTVSRDNAKSTLYLQMNSLRAEDTAVYYCARGYGAMDAWGQGTTVTVSS
VL: DIQMTQSPSSLSASVGDRVTITCKASQDIDDYLSWYQQKPGKSPKLVIYAATRLADGVPSRFSGSGSGTDYTLTISSLQPEDFATYYCLQSSSTPWTFGGGTKVEIK
With B10, the “hVEGF165 IC50 (nM)” value with Human VEGF-A 165 was found to be 0.168 nM.

B11: hBEW-1B10.2 (antibody, V domains shown)
VH: EVQLVESGGGLVQPGGSLRLSCAASGFSFSKYDMAWFRQAPGKGLEWVASITTSGVGTYYRDSVKGRFTVSRDNAKNSLYLQMNSLRAEDTAVYYCARGYGAMDAWGQGTTVTVSS
VL: DIQMTQSPSSLSASVGDRVTITCKASQDIDDYLSWYQQKPGKSPKLVIYAATRLADGVPSRFSGSGSGTDYTLTISSLQPEDFATYYCLQSSSTPWTFGGGTKVEIK
On to B11, for which the “hVEGF165 IC50 (nM)” value with Human VEGF-A 165 stood at 0.222 nM.

B12: hBEW-9A8.17 (antibody, V domains shown)
VH: EIQLVQSGSELKKPGASVKVSCKASGYTFTNYGMYWVKQAPGQGLEYMGWINTETGKPIYADDFKGRFVFSLDTSVSTAYLQISSLKAEDTAVYYCARVDYDGSFWFAYWGQGTLVTVSS
VL: ETVLTQSPATLSLSPGERATLSCRASESVSTVIHWYQQKPGQQPRLLIHGASNLESGVPARFSGSGSGTDFTLTISSLEPEDFAVYFCQQHWNDPPTFGQGTKLEIK
Consider B12, for which the “hVEGF165 IC50 (nM)” value with Human VEGF-A 165 is 0.059 nM.

B13: hBEW-9A8.20 (antibody, V domains shown)
VH: EIQLVQSGAEVKKPGASVKVSCKASGYTFTNYGMYWVKQAPGQGLEYMGWINTETGKPIYADDFKGRFTFTLDTSTSTAYMELRSLRSDDTAVYYCARVDYDGSFWFAYWGQGTLVTVSS
VL: ETVLTQSPATLSLSPGERATLSCRASESVSTVIHWYQQKPGQQPRLLIHGASNLESGVPARFSGSGSGTDFTLTISSLEPEDFAVYFCQQHWNDPPTFGQGTKLEIK
B13: in the test with Human VEGF-A 165, the “hVEGF165 IC50 (nM)” value was 0.064 nM.

B14: CL-28815-IgG (EI version of parent mAb) (antibody, V domains shown)
VH: EVQLVQSGSELKKPGASVKVSCKASGYTFTNYGMYWVRQAPGQGLEWMGWINTETGKPTYADDFKGRFVFSLDTSVSTAYLQISSLKAEDTAVYYCARTNYYYRSYIFYFDYWGQGTMVTVSS
VL: EIVLTQSPATLSLSPGERATLSCRASESVSTHMHWYQQKPGQAPRLLIYGASNLESGVPARFSGSGSGTDFTLTISSLEPEDFAVYFCQQSWNDPFTFGQGTKLEIK
notes: IgG format
On to B14, for which, in test [1], the Kd came out at 0.012 nM and the on-rate (kon) came to 9.2e+06 M⁻¹ s⁻¹.

B15: hBEW-9A8.21 (antibody, V domains shown)
VH: EIQLVQSGAEVKKPGASVKVSCKASGYTFTNYGMYWVRQAPGQGLEWMGWINTETGKPIYADDFKGRFTFTLDTSTSTAYMELRSLRSDDTAVYYCARVDYDGSFWFAYWGQGTLVTVSS
VL: ETVLTQSPATLSLSPGERATLSCRASESVSTVIHWYQQKPGQQPRLLIHGASNLESGVPARFSGSGSGTDFTLTISSLEPEDFAVYFCQQHWNDPPTFGQGTKLEIK
Regarding B15, in the test with Human VEGF-A 165, the “hVEGF165 IC50 (nM)” value came out at 0.09 nM.

(Values after patent US20170015742A1 (published 2017).)
